Here are results for 13 molecules from patent publication EP0531080A2, “Peptide inhibitors of human papilloma virus protein binding to retinoblastoma gene protein” (MERCK & CO. INC., priority 1991, dated 1993).

The target of assay [1] is T1, HPV-16 E7 protein binding to the RBG protein (Homo sapiens, UniProt P06400).
T1 sequence (P06400 1-928): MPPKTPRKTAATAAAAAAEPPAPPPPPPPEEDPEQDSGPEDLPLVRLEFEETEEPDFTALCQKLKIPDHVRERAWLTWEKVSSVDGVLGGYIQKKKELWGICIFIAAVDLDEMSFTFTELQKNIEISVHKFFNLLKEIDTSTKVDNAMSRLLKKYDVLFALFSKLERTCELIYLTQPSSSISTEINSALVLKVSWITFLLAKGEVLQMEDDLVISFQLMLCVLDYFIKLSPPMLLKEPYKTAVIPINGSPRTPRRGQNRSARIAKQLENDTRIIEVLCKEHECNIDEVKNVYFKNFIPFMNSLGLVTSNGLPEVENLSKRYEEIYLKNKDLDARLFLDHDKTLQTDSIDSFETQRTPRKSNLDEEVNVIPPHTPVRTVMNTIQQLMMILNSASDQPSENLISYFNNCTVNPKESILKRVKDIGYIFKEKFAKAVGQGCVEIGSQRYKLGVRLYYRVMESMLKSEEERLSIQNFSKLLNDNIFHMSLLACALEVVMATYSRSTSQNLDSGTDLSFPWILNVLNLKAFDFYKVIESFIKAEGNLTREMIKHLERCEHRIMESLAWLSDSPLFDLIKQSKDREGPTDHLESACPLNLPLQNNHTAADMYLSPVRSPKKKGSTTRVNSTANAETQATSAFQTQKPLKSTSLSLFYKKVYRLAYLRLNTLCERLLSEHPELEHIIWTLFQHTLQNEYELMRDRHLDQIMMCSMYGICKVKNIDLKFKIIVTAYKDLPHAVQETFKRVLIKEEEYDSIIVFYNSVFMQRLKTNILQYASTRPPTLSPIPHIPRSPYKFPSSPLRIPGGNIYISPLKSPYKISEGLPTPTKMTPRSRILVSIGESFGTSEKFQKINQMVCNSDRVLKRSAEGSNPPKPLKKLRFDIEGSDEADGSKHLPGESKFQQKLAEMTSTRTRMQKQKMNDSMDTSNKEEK
Put plainly: HPV-16 E7 protein binding assay described by R.E. Jones et al. The conditions noted are these: lowest concentration stated to inhibit. As for the experimental part:
Peptides D and E were examined in the HPV-16 E7 protein binding assay described by R.E. Jones et al., The Journal of Biological Chemistry, Vol 265:12782-12785, 1990. This assay measures the binding of the E7 protein to the RBG protein. Peptides D and E inhibited HPV-16 E7 protein binding to the RBG protein at concentrations of Peptide D as low as 20nM and at concentrations of Peptide E as low as 2nM. […] Additionally, Peptide D and Peptide E are themselves antagonists of the HPV E7 protein binding to the RBG protein.

Assay [2] has as its target T1, HPV-16 E7 protein binding to the RBG protein. As to the kind of experiment: Binding inhibition assay by immune precipitation (Example 2; Hela cell lysate plus radiolabeled E7 from rabbit reticulocyte lysate). Set-up: Whole cell lysates of Hela cells were used as a source of human RBG protein; endogenous in cells; host or cells: HeLa whole cell lysate (RB); rabbit reticulocyte lysate, T7 promoter clone (E7). As to the method: Peptide A, Peptide B, and Acetyl-GRP 20-27 were assayed for their abilities to inhibit the binding of the HPV-16 E7 protein to the RBG protein. Binding inhibition assays were carried out in vitro using a modification of the procedure described by N. Dyson et al., Science 243: 934-936 1989. Whole cell lysates of Hela cells were used as a source of human RBG protein. Rabbit reticulocyte cell free lysates that permit transcription and translation of exogenously added DNAs served as a source of HPV-16 E7 protein. The HPV-16 E7 gene was added to the rabbit reticulocyte lysate as a recombinant DNA clone under the control of a T7 promoter and incubated for 60 minutes at 30°C in the presence of radiolabeled methionine to allow transcription of the HPV-16 E7 gene and translation into E7 protein that contained radiolabeled methionine. The Hela cell and rabbit reticulocyte lysates were then mixed and incubated at 4°C for 90 minutes. After further manipulations a murine antibody against the RBG protein was added and incubated at 4°C for 60 minutes. Next, a rabbit anti-mouse IgG antibody and protein A sepharose was added to the reaction mixture in order to immune precipitate the RBG protein. At the same time, the E7 protein that was bound to the RBG protein was also precipitated. […] This biochemical protocol yields a quantitative estimate of the binding of HPV-16 E7 protein to the RBG protein in vitro. […]

Assay [3] deals with T2, RBG Protein/E7 (Homo sapiens, UniProt P06400).
T2 construct: made in house; host or cells: rabbit reticulocyte lysate (in vitro translation of RB)
T2 sequence (P06400 1-928): T1 sequence (P06400 1-928)
As to the kind of experiment: E7/RB plate binding assay (recombinant E7 on plate, 35S-labeled RBG protein). The conditions noted are these: average of at least two experiments, triplicate; read-out: PLATE ASSAY RBG Protein/E7 IC₅₀. As for the experimental part: (§1) An in vitro solution assay used for the detection of complex formation between E7 protein and p105-RB has been described by Dyson, et. al. (30). Cell lysates used as source of RBG protein were prepared from human T24 bladder carcinoma cells as described (30). C36 and the control antibody Pb416 are monoclonal antibodies directed against RGB protein and SV40 large T protein, respectively. These antibodies were a generous gift from E. Harlow (Cold Spring Harbor Laboratories, Cold Spring Harbor, NY). Immunoprecipitates of E7/RGB protein binding reactions containing serially diluted peptide antagonists were dissolved in 35 µl gel loasing buffer (30). Five µl was counted directly in Right Safe (Beckan, Palo Alto, CA.) scintillation cocktail and 25 µl was subjected to sodium dodecyl sulphate poly-acrylamide gel electrophoresis. Gels were dried and exposed to Kodak X-AR film at -70°C overnight. In order to more rapidly assay large numbers of samples and more easily quantitate the binding results, we developed a plate binding asszy for the detection of E7/RGB protein association. Purified recombinant E7 was resuspended in 0.1 M sodium carbonate, pH 9.5, at 1 ng/µl. Fifty microliters of this solution was placed inot each well of a polyvinyl chloride micortiter plate (COSTAR 2596, Cambridge, MA.). The plate was gently agitated for 18 hours at 4°C. The E7 solution was aspirated off and 100 µl of plate blocking buffer (PBB) [50mM Hepes 7.0, 250mM sodium chloride, 0.1% NP40, 0.5% (w/v) pigskin gelatin, and 0.02% sodium azide] was added pwe well. The buffer was removed and the plate was washed three times in the above buffer without the gelatin (PB). five femtomoles of ³⁵S-methionine (Amersham 100 Ci/mmole, Arlington Heights, IL.) labeled RBG protein prepared in a rabbit reticulocyte lysate was diluted in PB buffer containing various peptide antagonists to a final volume of 50 µl and added to the E7 treated plate. The plate was agsin incubated at 4°C with agitation for 1 hour after which the solution was aspirated and each well washed five times with PB. The top of the plate was removed using a hot wire cutting apparatus (D. Lee, Sunnyvale, CA). Each well eas placed in 3 ml of Ready Safe scintillation cocktail (Beckman, Palo Alto, CA.) and counted for one minute. • 30. Dyson, N. Duffy, L.A., and Harlow, E. (1989) Cancer Cells 7, 235-240 • 31. Merrifield, R.B. (1963) J. Am. Chem. Soc. 85, 2149-2154 • 32. Sakakibara, S., Shimonishi, Y., Kishida, Y., Okada, M., and Sugihara, H. (1967) Bull. Chem. Soc. Japan 40, 2164-2167 • 33. Rivier, J., McClentock, R., and Anderson, H. (1984) J. Chromatogr. 288, 303-328
(§2) IC ₅₀ values represent the average of at least two experiments in which each concentration of inhibitor was tested in triplicate. The varition between experiments was less than 10%. The 50% inhibition concentration are micromolar. ND = not determined. [formula] [formula] [formula] [formula]

Assay [4] concerns the target T3, RBG Protein/E7 (complex formation between E7 protein and p105-RB) (Homo sapiens, UniProt P06400).
T3 construct: Cell lysates used as source of RBG protein were prepared from human T24 bladder carcinoma cells; endogenous in cells; host or cells: human T24 bladder carcinoma cells (whole cell lysate)
T3 sequence (P06400 1-928): T1 sequence (P06400 1-928)
As to the kind of experiment: E7/RB solution assay (immunoprecipitation, T24 cell lysates as source of RBG protein). It is filed as binding. The conditions noted are these: average of at least two experiments, triplicate; read-out: SOLUTION ASSAY RBG Protein/E7 IC₅₀. As for the experimental part: as §1, §2

pIC50: −log10 of the molar value. Where a SMILES comes first, the peptide text is derived from it. Where no end group is shown, it is not given here. [ ]: non-standard residue; d: D form. NMeY = CN[C@@H](Cc1ccc(O)cc1)C(=O)O; NMeL = CN[C@@H](CC(C)C)C(=O)O

As for `CC(=O)N[C@@H](CC(=O)O)C(=O)N(C)[C@@H](CC(C)C)C(=O)N[C@@H](Cc1ccc(O)cc1)C(=O)N[C@@H](CS)C(=O)N(C)[C@@H](Cc1ccc(O)cc1)C(=O)N[C@@H](CCC(=O)O)C(=O)N[C@@H](CCC(N)=O)C(=O)N(C)[C@@H](CC(C)C)C(=O)N[C@@H](CC(N)=O)C(N)=O` [Peptide E] (Ac-D[NMeL]YC[NMeY]EQ[NMeL]N-NH2), the “inhibited HPV-16 E7 protein binding to the RBG protein at concentrations as low as” value (“inhibited HPV-16 E7 protein binding” for short) in assay [1] was found to be 2 nM.

With Ac-DLYCYEQLN-NH2 [Peptide D], in assay [1], the “inhibited HPV-16 E7 protein binding” value is on record as 20 nM.

Take Ac-LYCYEQLNDSS-NH2 [Peptide C]: the “inhibited HPV-16 E7 protein binding” value in assay [2] (lowest concentration stated to inhibit) came to 1 µM.

On to “Acetyl-GRP 20-27: last eight amino acid residues of the human gastrin releasing peptide, unrelated to the HPV E7 protein”, for which the “effect on HPV-16 E7 protein binding to the RBG protein” value in assay [2] (concentrations up to 60 uM) is recorded as “no effect”.

As to “E7-(14-29)-AMIDE (DLQPETTDLYCYEQLN-NH2; UniProt P03129 14-29, looked up, fragment) [Peptide 7]”, the pIC50 in assay [3] is 7.10.

In the case of “E7-(18-29)-AMIDE (ETTDLYCYEQLN-NH2; UniProt P03129 18-29, looked up, fragment) [Peptide 8]”, the pIC50 in assay [4] is 6.40; in assay [3] it was 7.22.

As for “E7-(20-32)-AMIDE (TDLYCYEQLNDSS-NH2; UniProt P03129 20-32, looked up, fragment) [Peptide 1]”, the pIC50 was 6.00 in assay [4] and 7.30 in assay [3].

On to “E7-(21)32)-AMIDE (DLYCYEQLNDSS-NH2; UniProt P03129 21-32, looked up, fragment) [Peptide 10]”, for which the pIC50 is 4.70 in assay [4] and 4.94 in assay [3].

Regarding “TDLFCYEQLN-NH2 [Peptide 19, [Phe²³]-E7-(20-29)-AMIDE]”, in assay [3], the pIC50 was 7.22.

As for [ABU²⁴]-E7-(20-32)-AMIDE [Peptide 17], in assay [4], the pIC50 is 4.70.

As to [ACM²⁴]-E7-(20-32)-AMIDE [Peptide 18], the pIC50 in assay [4] was < 4.00.

For “[G1n27]]-E7-(20-27)-AMIDE (TDLYCYEQ-NH2; UniProt P03129 20-27, looked up, fragment) [Peptide 5]”, the pIC50 in assay [4] is 4.30; in assay [3], 5.04.

With “[Ser²⁴]-E7-(20-32)-AMIDE (TDLYSYEQLNDSS-NH2; UniProt P03129 20-32, looked up, variant C24S) [Peptide 16]”, the pIC50 in assay [4] is 4.40.
